T1: consensus S-HBs protein of HBV genotype I (ConsHBAg_I) (hepatitis B virus genotype I (consensus), UniProt P31873 175-400)
T1 construct: also called genotype I S-HBs
T1 chain: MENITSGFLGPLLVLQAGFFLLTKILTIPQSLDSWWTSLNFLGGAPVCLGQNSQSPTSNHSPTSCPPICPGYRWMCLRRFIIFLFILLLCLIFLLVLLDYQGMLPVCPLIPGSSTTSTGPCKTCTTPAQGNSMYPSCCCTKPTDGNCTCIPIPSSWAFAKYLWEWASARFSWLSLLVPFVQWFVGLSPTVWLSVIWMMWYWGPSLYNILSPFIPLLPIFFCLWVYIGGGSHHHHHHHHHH

T2: consensus S-HBs protein of HBV genotype E (ConsHBAg_E) (hepatitis B virus genotype E (consensus), UniProt Q69603 174-399)
T2 construct: also called genotype E S-HBs
T2 chain: T1 chain with N3S, K122R, P127L, N131T, Y134F, T140S, T143S, A159G, Y161F, V184A

B1: Bv4.105 (antibody, V domains shown)
VH: QVQLVESGGGLVQSGRSLRLSCSAFGFTFGDYPIMWVRLAPGKGLEWVGFIRSKAYGGTAEYAASVKGRFTTSRDDSRSTAYLQMNSLKTEDTAVYYCTREGGHSGFWSGFNKIPTFDYWGQGSLVTVSS
VL: DIQMTQSPSSLSASIGDRVSITCRASETIRTYLNWYQHKPGKAPQLLIYAASSVQSGVPSRFSGSGSGTDFTLTISNLQPEDFATYYCQQSYTSPWVTFGPGTKVDIKR
B2: Bv4.115 (antibody)
heavy: not shown
light: DIQMTQSPSTLSASVGDRVTITCRASQSINTWLAWYQQKPGKAPKLLISKASSLESGVPSRFSGSGSGTEFTLSISSLQPDDFATYYCQQYNTFSFGQGTKLEIKRTVAAPSVFIFPPSDEQLKSGTASVVCLLNNFYPREAKVQWKVDNALQSGNSQESVTEQDSKDSTYSLSSTLTLSKADYEKHKVYACEVTHQGLSSPVTKSFNRGEC
B3: Bc8.111 (antibody)
heavy: not shown
light: QSVLTQPHSVSESPGKTVTISCTRSSGSIASNYVQWYQQRPGSAPTTVIYEDNERPSGVPARFSGSIDSSSNSASLTISGLKTEDEADYYCQSYESSNWVFGGGTKLTVLGQPKAAPSVTLFPPSSEELQANKATLVCLISDFYPGAVTVAWKADSSPVKAGVETTTPSKQSNNKYAASSYLSLTPEQWKSHRSYSCQVTHEGSTVEKTVAPTECS
B4: Bc1.229 (antibody, V domains shown)
VH: QVQLVESGGGVVQPGRSLRVSCAASGFTFSNYGMHWVRQAPGKGLEWLAVIWNDGSNKYYADSVKGRFIISRDNSKNTLYLQMNSLGAEDTAMYYCAREGLTSVTMLDSWGQGALVTVSS
VL: DIQMTQSPSSLSASVGDRVTITCRASQYISSFLNWYQQKPGKAPKLLIHVASSLQSGVPSRFSGSGSGTHFTLTISSLQPEDFATYYCQQSYSTPLFTFGPGTKVDIKR
B5: Bc1.263 (antibody, human IgG1, kappa, V domains shown)
VH: QVQLVQSGAEVKKPGSSVKVSCRASGGTFSNYGVNWVRQAPGQGLEWMGKIIPILGIVNYAQKFQGRVTITADKSTSTAYMELSSLRSEDTAVYYCARDRGGKPLYSYGYGLDYWGQGTLVTVSS
VL: EIVLTQSPATLSLSPGERATLSCRASLSVSTYLAWYQKKPGQPPRLLIYDASKRATGIPARFSGSGSGTDFTLTISSLEPEDFAVYYCQQRSTTFGQGTKVEIKR

Where a chain is given by its changes, count along the chain named.

T5 sequence (Q05496 175-400, tags left off): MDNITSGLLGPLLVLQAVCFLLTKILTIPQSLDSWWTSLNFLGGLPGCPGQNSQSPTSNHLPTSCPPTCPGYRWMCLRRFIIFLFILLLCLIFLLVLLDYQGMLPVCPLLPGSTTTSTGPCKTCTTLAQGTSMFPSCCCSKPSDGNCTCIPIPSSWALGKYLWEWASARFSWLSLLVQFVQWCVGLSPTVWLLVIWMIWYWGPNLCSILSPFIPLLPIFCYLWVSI

One experiment deals with T3, Adw S-HBs protein (adw HBsAg particles, GenHevac (Adw)) (hepatitis B virus, adw subtype).
T3 construct: also called GenHevac-B
Put plainly: ELISA, AUC of binding curve. The arrangement: unit not given beside the values. Background: An ELISA detects its analyte on a solid surface through an enzyme-linked reagent.
As to B1, the “AUC (serotype binding)” value came to 8.

In the case of B2, the “AUC (serotype binding)” value turned out to be 36.

Take B3: the “AUC (serotype binding)” value amounted to 35.

Regarding B4, the “AUC (serotype binding)” value came to 35.

The target in another experiment is T4, Ayw S-HBs protein (ayw HBsAg particles, Engerix-B (Ayw)) (hepatitis B virus, ayw subtype). The experiment in a line: ELISA, AUC of binding curve. Also noted: unit not given beside the values.
B1: the “AUC (serotype binding)” value was found to be 33.

As to B2, the “AUC (serotype binding)” value came out at 37.

As for B3, the “AUC (serotype binding)” value came to 36.

With B4, the “AUC (serotype binding)” value turned out to be 34.

The next experiment concerns the target T5, consensus S-HBs protein of HBV genotype F (ConsHBAg_F) (hepatitis B virus genotype F (consensus), UniProt Q05496 175-400).
T5 construct: also called genotype F S-HBs
The experiment in a line: flow cytometry, S-HBs-transfected 293-F cells. Background: A flow cytometer gives signals particle by particle.
Consider B1, for which the “% of bound S-HBs-expressing cells” value was determined as 46%.

Turning to B2, the “% of bound S-HBs-expressing cells” value came to 73%.

Regarding B3, the “% of bound S-HBs-expressing cells” value was found to be 66%.

B4: the “% of bound S-HBs-expressing cells” value worked out at 68%.

The target in a further experiment is genotype D S-HBs mutant protein Y134V (hepatitis B virus genotype D, UniProt P03138 164-389). The experiment in a line: flow cytometry, S-HBs-transfected 293-F cells.
In the case of B2, the “% of bound S-HBs-expressing cells” value was found to be 66%.

In the case of B3, the “% of bound S-HBs-expressing cells” value was 56%.

In the case of B4, the “% of bound S-HBs-expressing cells” value was 67%.

The next experiment deals with T6, consensus S-HBs protein of HBV genotype G (ConsHBAg_G) (hepatitis B virus genotype G (consensus), UniProt Q9IBI3 174-399).
T6 construct: also called genotype G S-HBs
Put plainly: flow cytometry, S-HBs-transfected 293-F cells.
Take B2: the “% of bound S-HBs-expressing cells” value worked out at 83%.

In the case of B3, the “% of bound S-HBs-expressing cells” value worked out at 60%.

In the case of B4, the “% of bound S-HBs-expressing cells” value was determined as 79%.

The next experiment has as its target T7, consensus S-HBs protein of HBV genotype B (ConsHBAg_B) (hepatitis B virus genotype B (consensus), UniProt Q9PWW3 175-400).
T7 construct: also called genotype B S-HBs
Put plainly: flow cytometry, S-HBs-transfected 293-F cells.
For the molecule B2, the “% of bound S-HBs-expressing cells” value was found to be 83%.

B3: the “% of bound S-HBs-expressing cells” value amounted to 64%.

With B4, the “% of bound S-HBs-expressing cells” value amounted to 68%.

Another experiment concerns the target T8, consensus S-HBs protein of HBV genotype C (ConsHBAg_C) (hepatitis B virus genotype C (consensus), UniProt P03140 175-400).
T8 construct: also called genotype C S-HBs
Put plainly: flow cytometry, S-HBs-transfected 293-F cells.
For the molecule B1, the “% of bound S-HBs-expressing cells” value is 1%.

As for B2, the “% of bound S-HBs-expressing cells” value came out at 82%.

Consider B3, for which the “% of bound S-HBs-expressing cells” value came out at 72%.

As for B4, the “% of bound S-HBs-expressing cells” value was found to be 76%.

A further experiment has as its target T9, consensus S-HBs protein of HBV genotype A (ConsHBAg_A) (hepatitis B virus genotype A (consensus), UniProt P03141 175-400).
T9 construct: also called genotype A S-HBs
Put plainly: flow cytometry, S-HBs-transfected 293-F cells.
Consider B1, for which the “% of bound S-HBs-expressing cells” value turned out to be 21%.

As to B2, the “% of bound S-HBs-expressing cells” value came to 88%.

Consider B3, for which the “% of bound S-HBs-expressing cells” value is 65%.

As to B4, the “% of bound S-HBs-expressing cells” value was 75%.

A further experiment deals with genotype D S-HBs mutant protein N146S (hepatitis B virus genotype D, UniProt P03138 164-389). The experiment in a line: flow cytometry, S-HBs-transfected 293-F cells.
On to B2, for which the “% of bound S-HBs-expressing cells” value was 67%.

As for B3, the “% of bound S-HBs-expressing cells” value was 55%.

For the molecule B4, the “% of bound S-HBs-expressing cells” value worked out at 56%.

The target of another experiment is T1, consensus S-HBs protein of HBV genotype …. Put plainly: flow cytometry, S-HBs-transfected 293-F cells.
Regarding B2, the “% of bound S-HBs-expressing cells” value was 71%.

Take B3: the “% of bound S-HBs-expressing cells” value turned out to be 52%.

Turning to B4, the “% of bound S-HBs-expressing cells” value turned out to be 64%.

In another experiment the target is genotype D S-HBs mutant protein M133T (hepatitis B virus genotype D, UniProt P03138 164-389). The experiment in a line: flow cytometry, S-HBs-transfected 293-F cells.
With B2, the “% of bound S-HBs-expressing cells” value amounted to 67%.

As for B3, the “% of bound S-HBs-expressing cells” value amounted to 54%.

In the case of B4, the “% of bound S-HBs-expressing cells” value was 62%.

A further experiment has as its target genotype D S-HBs mutant protein G145R (hepatitis B virus genotype D, UniProt P03138 164-389). The experiment in a line: flow cytometry, S-HBs-transfected 293-F cells.
In the case of B2, the “% of bound S-HBs-expressing cells” value turned out to be 60%.

With B3, the “% of bound S-HBs-expressing cells” value came to 0%.

In the next experiment the target is T2, consensus S-HBs protein of HBV genotype …. Put plainly: flow cytometry, S-HBs-transfected 293-F cells.
As for B2, the “% of bound S-HBs-expressing cells” value stood at 85%.

On to B3, for which the “% of bound S-HBs-expressing cells” value stood at 68%.

Take B4: the “% of bound S-HBs-expressing cells” value worked out at 71%.

For a further experiment, the target named is T10, consensus S-HBs protein of HBV genotype D (ConsHBAg_D) (hepatitis B virus genotype D (consensus), UniProt P03138 164-389).
T10 construct: also called genotype D S-HBs; ConsD S-HBs
Put plainly: flow cytometry, S-HBs-transfected 293-F cells.
Consider B2, for which the “% of bound S-HBs-expressing cells” value was 89%.

B3: the “% of bound S-HBs-expressing cells” value worked out at 71%.

For B4, the “% of bound S-HBs-expressing cells” value turned out to be 73%.

The next experiment concerns the target genotype D S-HBs mutant protein T126A (hepatitis B virus genotype D, UniProt P03138 164-389). The experiment in a line: flow cytometry, S-HBs-transfected 293-F cells.
In the case of B2, the “% of bound S-HBs-expressing cells” value is 71%.

Turning to B3, the “% of bound S-HBs-expressing cells” value amounted to 55%.

For the molecule B4, the “% of bound S-HBs-expressing cells” value came out at 70%.

The target in another experiment is T11, consensus S-HBs protein of HBV genotype H (ConsHBAg_H) (hepatitis B virus genotype H (consensus), UniProt Q8JMZ6 175-400).
T11 construct: also called genotype H S-HBs
T11 sequence (Q8JMZ6 175-400, tags left off): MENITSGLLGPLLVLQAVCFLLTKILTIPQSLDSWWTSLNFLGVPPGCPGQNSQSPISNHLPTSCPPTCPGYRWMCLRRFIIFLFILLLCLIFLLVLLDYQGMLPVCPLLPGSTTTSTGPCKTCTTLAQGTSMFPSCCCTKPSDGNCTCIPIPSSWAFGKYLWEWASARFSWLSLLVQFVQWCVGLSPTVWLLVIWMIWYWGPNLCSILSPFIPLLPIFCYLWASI
The experiment in a line: flow cytometry, S-HBs-transfected 293-F cells.
As to B1, the “% of bound S-HBs-expressing cells” value turned out to be 55%.

For the molecule B2, the “% of bound S-HBs-expressing cells” value was found to be 77%.

As for B3, the “% of bound S-HBs-expressing cells” value amounted to 67%.

Take B4: the “% of bound S-HBs-expressing cells” value was determined as 74%.

The next experiment concerns the target HBV genotype D viruses (produced in HepG2.2.15 cell culture supernatant) (hepatitis B virus genotype D). The experiment in a line: cell-based or functional assay.
As for B1, the “HBV-gD in vitro neutralization (IC50 µg/ml)” value (“HBV-gD in vitro neutralization” for short) came to 2.95e-06 µg/mL.

Consider B2, for which the “HBV-gD in vitro neutralization” value worked out at 3.87e-06 µg/mL.

Turning to B3, the “HBV-gD in vitro neutralization” value turned out to be 2.51e-06 µg/mL.

With B4, the “HBV-gD in vitro neutralization” value worked out at 2.53e-05 µg/mL.

In the case of B5, the “HBV-gD in vitro neutralization” value came to 3.96e-06 µg/mL.

In another experiment the target is T3, Adw S-HBs protein (adw HBsAg particles, …). The experiment in a line: ELISA on recombinant HBV vaccine particles.
As for B1, the concentration for a half-maximal effect (EC50) (in general, the concentration at which the effect is half-maximal) was determined as 8920 ng/mL.

For the molecule B2, the EC50 amounted to 27.7 ng/mL.

On to B3, for which the EC50 was found to be 8.9 ng/mL.

For the molecule B4, the EC50 stood at 26.1 ng/mL.

Another experiment has as its target T4, Ayw S-HBs protein (ayw HBsAg particles, …). The experiment in a line: ELISA on recombinant HBV vaccine particles.
B1: the half-maximal effective concentration (EC50) was 4.8 ng/mL.

With B2, the EC50 turned out to be 5.1 ng/mL.

Take B3: the EC50 is 9.5 ng/mL.

B4: the EC50 stood at 12.3 ng/mL.

The values are drawn from patent US20230340081A1 (Hoffmann-La Roche, published 2023).
